Reference: US10208121B2, “Anti-Axl antagonistic antibodies” (BERGEN TEKNOLOGIOVERFORING AS, priority 2014, dated 2019)
“Also recorded” adds a separate entry of the source.

What was measured:
[1] = target: T1, rhAxl-Fc chimera (recombinant human Axl) (Homo sapiens, UniProt P30530); assay: Biacore surface plasmon resonance kinetic affinity determination on immobilized rhAxl-Fc; type: binding; details: for association rate (kon): human Axl, Examples 5 and 13; for Off-rate (koff; s^−1) / On-rate (kon; M^−1s^−1): rhAxl immobilized on sensor chip, 25° C., 1:1 Langmuir binding model
T1 construct: Soluble recombinant antigens corresponding to the extracellular domains of members of the human TAM receptor family; purchased R&D Systems 154-AL
Description: (§1) Kinetic analysis of MAbs 10C9 and 10G5 interacting with rhAxl immobilized on the surface of the Biacore sensor chip. Overlay plots of sensograms for different antibody concentrations (1.3-666.7 nM for 10C9 and 0.3-166.7 nM for 10G5) are shown. The precise kinetic analysis was performed using BIA evaluation software and curve fitting according to 1:1 Langmuir binding model.
as §1, with “chimeric antibodies c10C9” for “MAbs 10C9”, “c10G5” for “10G5”, “c10C9” for “10C9”, “c10G5)” for “10G5)”
(§2) Affinity determination of anti-Axl antibodies 10C9 and 10G5 was performed at 25° C. by surface plasmon resonance measurements using Biacore 3000 instrument (GE Healthcare). As a solid antigen-coated surface, a sensor chip CM5 with immobilized rhAxl-Fc chimera (R&D Systems, Cat. no. 154-AL) at density 190 RU was used.
(§3) For the kinetics measurements, different concentrations of anti-Axl antibodies (from 0.3 to 666.7 nM) in HBS-EP buffer (Biacore, Cat. no. BR-1001-88) were injected at flow rate of 30 μL/min with 3 min injection time followed by 5 min dissociation (buffer alone). After each cycle, the surface was regenerated by 30 sec injection of a regeneration solution (10 mM HCl, 1 M NaCl) at flow rate 50 μL/min.
The kinetic association (on-rate, kon) and dissociation (off-rate, koff) rates were calculated using BIAevaluation software and 1:1 Langmuir binding model. The equilibrium dissociation constant (KD) was calculated as the koff/kon ratio. The half-life (t1/2) of the formed antibody-antigen complexes was calculated as the ln 2/koff ratio.
as §2, with “of the chimeric” for “of”, “c10C9” for “10C9”, “c10G5” for “10G5”
as §3, with “333.3” for “666.7”

[2] = target: T2, human Axl (rhAxl-Fc chimera) (Homo sapiens, UniProt P30530); assay: Biacore binding analysis on immobilized human Axl; details: 10 μg/mL, 25° C.
T2 construct: Soluble recombinant antigens corresponding to the extracellular domains of members of the human TAM receptor family; purchased R&D Systems 154-AL
Description: All binding experiments were performed using Biacore 3000 instrument (GE Healthcare) at 25° C. Soluble recombinant antigens corresponding to the extracellular domains of members of the human TAM receptor family, Axl (rhAxl-Fc chimera; R&D Systems, Cat. no. 154-AL), Mer (rhMer-Fc chimera; R&D Systems, Cat. no. 891-MR) and Tyro3 (rhTyro3/Dtk-Fc chimera; R&D Systems, Cat. no. 859-DK) were immobilized on the surface of CM5 sensor chip using amine coupling at the surface density of 393.0, 303.6 and 364.0 resonance units (RU), respectively. The Biacore run was performed in an automatic mode using Binding analysis wizard. Samples containing either MAb 10C9 or MAb 10G5 at concentration 10 μg/mL in HBS-EP buffer (GE Healthcare) were injected over the surfaces with immobilized antigens at flow rate of 30 μL/min for 3 min (association) followed by 5 min dissociation.
The binding experiments were performed using Biacore 3000 instrument (GE Healthcare) at 25° C. The soluble recombinant antigens corresponding to human Axl (rhAxl-Fc chimera; R&D Systems, Cat. no. 154-AL), mouse Axl (rmAxl-Fc chimera; R&D Systems, R&D Systems; Cat. no. 854-AX) and human Tyro3 (rhTyro3/Dtk-Fc chimera; R&D Systems, Cat. no. 859-DK) were immobilized on the surface of CM5 sensor chip using amine coupling at the surface density of 1,308.0, 2,115.9 and 1,429.0 RU, respectively. The Biacore runs were performed in an automatic mode using Binding analysis wizard.
The sample containing either MAb 10C9, MAb 10G5 or recombinant mouse (rm) Axl-ligand Gas6 (R&D Systems, Cat. no. 986-GS/CF) at concentration 10 μg/mL in HBS-EP buffer (GE Healthcare) was injected over the surfaces with immobilized antigens at flow rate of 30 μL/min for 3 min (association) followed by 5 min dissociation.
The sequence of Axl receptor from cynomolgus monkey (Macaca fascicularis; SEQ ID NO.43) was retrieved from WO2009062690A1. Based on the sequence, recombinant extracellular domain of cyno-Axl was generated by transient expression in CHO cells as a fusion protein with human Fc. The recombinant cyno-Axl-Fc was purified to homogeneity using Protein A-Sepharose (GE Healthcare). The binding experiments were performed using Biacore 3000 instrument (GE Healthcare) at 25° C. The soluble recombinant antigens corresponding to human Axl (rhAxl-Fc chimera; R&D Systems, Cat. no. 154-AL) and cyno-Axl were immobilized on the surface of CM5 sensor chip using amine coupling at the surface density of 775 and 880 RU, respectively. The Biacore runs were performed in an automatic mode using Binding analysis wizard.
The sample containing either MAb 10C9, MAb 10G5 or human Axl-specific MAb 5F11 (control) at concentration 10 μg/mL in HBS-EP buffer (GE Healthcare) was injected over the surfaces with immobilized antigens at flow rate of 30 μL/min for 3 min (association) followed by 5 min dissociation.
In addition, the Axl-binding properties of the chimeric antibodies c10C9 and c10G5 were tested using Biacore 3000 instrument (GE Healthcare) and a sensor chip CM5 coated with human Axl (rhAxl-Fc chimera; R&D Systems, Cat. no. 154-AL) at the surface density of 1,308.0 RU. The Biacore runs were performed in an automatic mode using Binding analysis wizard. The samples comprising either the chimeric antibodies c10C9 and c10G5 or their murine counterparts at concentration 10 μg/mL in HBS-EP buffer (GE Healthcare) were injected over the surfaces with immobilized antigens at flow rate of 30 μL/min for 3 min (association) followed by 5 min dissociation.

| association rate (kon) [1] [M⁻¹ s⁻¹] | Off-rate (koff; s^−1) ([1]; mouse MAbs) [s⁻¹] | On-rate (kon; M^−1s^−1) ([1]; mouse MAbs) [M⁻¹ s⁻¹] | Off-rate (koff; s^−1) ([1]; chimeric antibodies) [s⁻¹] | On-rate (kon; M^−1s^−1) ([1]; chimeric antibodies) [M⁻¹ s⁻¹] | binding to human Axl ([2]; listed as 1009) | Molecule | binding to human Axl [2] |
| --- | --- | --- | --- | --- | --- | --- | --- |
| 830000 | 0.000439 | 829000 | – | – | – | 10G5: mouse anti-Axl monoclonal antibody from hybridoma WR-10G5-E5, IgG1; VH SEQ ID NO: 21, VL SEQ ID NO: 22 (antibody, listed as Mus musculus, V domains shown) VH: QVQLQQSGAELVRPGASVKLSCKASGYSFTDFYINWVRQRPGQGLEWIARIFPGGDNTYYNEKFKGKATLTAEESSSTAYIQLSSLTSEDSAVYFCARRGLYYAMDYWGQGISVTVSS VL: DVLMTQTPLSLPVSLGDQASISCRSSQSLVHSNGIPYLHWYLQKPGQSPKLLIYRVSNRFSGVPDRFSGSGSGTDFTLKISRVEAEDLGVYFCSQGTHVPPTFGGGTKLEIK | bind strongly; also recorded: specific binding; also recorded: strong and specific interaction |
| – | – | – | 0.000169 | 1.64e+06 | – | c10G5: chimeric (mouse variable/human constant) IgG1 variant of antibody 10G5 (antibody, left off: a dimerising Fc or GST, chimeric (mouse variable/human constant) IgG1 variant of antibody 10G5) heavy: QVQLQQSGAELVRPGASVKLSCKASGYSFTDFYINWVRQRPGQGLEWIARIFPGGDNTYYNEKFKGKATLTAEESSSTAYIQLSSLTSEDSAVYFCARRGLYYAMDYWGQGISVTVSS light: DVLMTQTPLSLPVSLGDQASISCRSSQSLVHSNGIPYLHWYLQKPGQSPKLLIYRVSNRFSGVPDRFSGSGSGTDFTLKISRVEAEDLGVYFCSQGTHVPPTFGGGTKLEIK | bind immobilized Axl with profiles very similar to the binding profiles of the corresponding mouse antibodies |
| 1.61e+06 | 0.000289 | 1.61e+06 | – | – | bind strongly | 10C9: mouse anti-Axl monoclonal antibody from hybridoma UT-10C9-B9, IgG2b; VH SEQ ID NO: 3, VL SEQ ID NO: 4 (antibody, listed as Mus musculus, V domains shown) VH: QVQLQQPGPELVKPGASVKISCKTSDYNFTRYYIHWVKQRPGQGLEWIGWIYPGTGDSKYNEKFKGRATLTADTSSSTAYMQLSSQTSEDSAVYFCARNGNYWYFDVWGAGTAVTVSS VL: DIVMTQAAPSGPVTPGESVSISCRSSKSLLHSNGNTYLYWFLQRPGQSPQLLIYRMSNLASGVPDRFSGSGSGTAFTLRISRVEAEDVGIYYCMQHREYPFTFGGGTKLEIK | specific binding; also recorded: strong and specific interaction |
